Changes are numbered by the printed parent chain.
B1: Fab 1C3 (Fab, part only; not given: lambda light chain, V domains shown, not shown: a dimerising Fc or GST)
VH: EVQLVESGGGLVQPGGSLRLSCAASGFTFSSYWMYWVRQAPGKGLEWVSAINTGGGRTYYADSVKGRFTISRDNAKNTLYLQMNSLKSEDTAVYYCAKGTSADGSSWYVPADPYDYWGQGTQVTVSS
B2: wt 1E2 gene3-Fab fusion on phage (Fab, V domains shown)
VH: EVQLVESGGGLVQPGGSLRLSCTASGFTFSNYWMYWVRQAPGKGLEWVSAINAAGSTYYADSVKGRFTISRDNAKNTLYLQMNSLQSEDTALYYCANLPRWGQGTQVTVSS
VL: QTVVTQEPSLSVSPGGTVTLTCGLSSGSVTSGNYPGWYQQKPGQAPRTLIYNTNSRYSGVPNRFSGSISGNKAALTITGAQPEDEADYYCAVYIGSSSYPVVFGGGTHLTVLG
notes: crude phage extract; also called wt 1E2 (phage)
B3: hum 1E2 gene3-Fab fusion on phage (Fab, V domains shown)
VH: B2 VH with T23A, A74S, Q86R, S87A, L92V, Q106L
VL: B2 VL with L10F, K41T, Y57S, N62D, S69L, P82A, E83D, A86S, H108K
notes: also called fully humanized 1E2
B4: safe variant 1E2 gene3-Fab fusion on phage (Fab, V domains shown)
VH: B2 VH with T23A, A74S, L92V
VL: B2 VL with L10F, Y57S, N62D, S69L, E83D, A86S
notes: The text says 'partially humanized V lambda fused to human C lambda and CH1'; also called safe 1E2
B5: Fab 1B3 (Fab, part only; not given: lambda light chain, V domains shown, not shown: a dimerising Fc or GST)
VH: EVQLVQSGAELRNPGASVKVSCKASGYTFTSYYIDWVRQAPGQGLEWMGRIDPEDGGTKYAQKFQGRVTFTADTSTSTAYVELSSLRSEDTAVYYCARSGRYELDYWGQGTQVTVSS
B6: Fab 1G1 (Fab, part only; not given: light chain, V domains shown, part only)
VH: B5 VH with I34T, G57D, S84T, A97L, R101A
B7: Fab 1A1 (Fab, part only; not given: lambda light chain, V domains shown, not shown: a dimerising Fc or GST)
VH: EVQLVESGGGLVQPGGSLRLSCAASGFTFDDYAMSWVRQAPGKGLEWVSTISWNGGATYYAESMKGRFTISRDNAKNTLYLQMNSLKSEDTAVYYCAKPYYSDYVGVEYDYWGQGTQVTVSS
B8: wt 1F2 gene3-Fab fusion on phage (Fab, V domains shown)
VH: EVQLVESGGGLVQPGGSLRLSCAASGFTFSTYAMSWVRQAPGKGPEWVSGINTGGGSTGYADSVKGRFTISRDNAKNTLYLQMNSLKPEDTAVYYCAKDWMATTPWGQGTQVTVSS
VL: QAVVTQEPSLSVSPGGTVTLTCGLSSGSVTTNNYPGWFQQTPGQAPRTLIYNTNNRHSGVPSRFSGSISGNKAALTITGAQPEDEADYYCALYMSSGSNNAVFGGGTHLTVLG
B9: hum 1F2 gene3-Fab fusion on phage (Fab, V domains shown)
VH: B8 VH with V5L, P45L, A75S, K87R, P88A, Q111L
VL: B8 VL with A2T, L10F, F38Y, H57S, S62D, S69L, P82A, E83D, A86S, H108K
notes: also called fully humanized 1F2
B10: safe variant 1F2 gene3-Fab fusion on phage (Fab, V domains shown)
VH: B8 VH with V5L, A75S, K87R
VL: B8 VL with A2T, L10F, S69L, P82A, E83D, A86S, H108K
notes: The text says 'partially humanized V lambda fused to human C lambda and CH1'; the result sentence speaks of back mutations in both VL and VH, so the safe VH is used; also called safe 1F2; partially humanized 1F2

Key:
[1] = molecular target: human IL-1 Beta (human) (UniProt P01584); experiment: ELISA based competition assay; competitor: antagonistic reference mouse mAb (Diaclone)
Chain of human IL-1 Beta (human) (P01584 117-269 limits assumed): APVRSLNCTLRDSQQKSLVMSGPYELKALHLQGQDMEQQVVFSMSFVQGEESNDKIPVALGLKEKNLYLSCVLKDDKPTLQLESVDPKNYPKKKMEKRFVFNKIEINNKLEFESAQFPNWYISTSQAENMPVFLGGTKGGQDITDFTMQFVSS

[2] = molecular target: human IL-1 Beta (human) (UniProt P01584); experiment: cell-based or functional assay
[3] = molecular target: human IL-1 Beta (human) (UniProt P01584); experiment: competition ELISA, periplasmic extract; competitor: coated mouse mAb (Diaclone); reduced signal means competition
[4] = molecular target: T1, neutravidin (UniProt P02701 25-152); experiment: phage ELISA, crude phage extract, anti-M13-HRP
T1 construct: Control wells without biotinylated IL-1 Beta
T1 sequence (P02701 25-152): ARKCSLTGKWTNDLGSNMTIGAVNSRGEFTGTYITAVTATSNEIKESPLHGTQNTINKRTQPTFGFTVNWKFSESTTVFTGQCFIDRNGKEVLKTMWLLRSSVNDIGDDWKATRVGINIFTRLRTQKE

| Binder | OD signal in the competition assay [3] | binding result [4] | other results |
| --- | --- | --- | --- |
| B1 | 0.386 OD |  | concentration at which competition is seen [1]: > 50 µg/mL; IC50 in the bioassay [2]: 3 µg/mL |
| B2 |  | no binding |  |
| B3 |  | no binding |  |
| B4 |  | no binding |  |
| B5 | 0.444 OD |  |  |
| B6 | 0.498 OD |  |  |
| B7 | 0.205 OD |  | IC50 [1]: 12 µg/mL; IC50 in the bioassay [2]: 10 µg/mL |
| B8 |  | no binding |  |
| B9 |  | no binding |  |
| B10 |  | no binding |  |
